Results taken from paper PMC7308368, “Structure of the polymerase ε holoenzyme and atomic model of the leading strand replisome” (Nature Communications, 2020).

B1: Dpb4 subunit of S. cerevisiae DNA polymerase ε holoenzyme (natural protein)
chain: MPPKGWRKDAQGNYPTTSYIKEQENITIQDLLFPKSTIVNLAREVPQQSGKKLLINKDASLALQRGATVFVNHLLLFAREIAKSQDKKSCSVDDVLSALDHIGHSALKGPVRDKLDEYQAAVEQRKKEKLDSGEVDADGDIDMGEDKENVPVEKVKEHDEIEEQGDALQDVEESSEKKQKTESQDVETRVQNLEQT
notes: DNA polymerase epsilon subunit D Dpb4, S. cerevisiae; histone fold domain and C-terminal region; The holoenzyme was purified on anti-Flag resin; also called Dbp4; source: yeast, subunit genes integrated under the Gal1/10 promotor, galactose-induced; purified as holoenzyme (anti-Flag resin, MonoS)
B2: Dpb2 subunit of S. cerevisiae DNA polymerase ε holoenzyme (natural protein)
chain: MFGSGNVLPVKIQPPLLRPLAYRVLSRKYGLSIKSDGLSALAEFVGTNIGANWRQGPATIKFLEQFAAVWKQQERGLFIDQSGVKEVIQEMKEREKVEWSHEHPIQHEENILGRTDDDENNSDDEMPIAADSSLQNVSLSSPMRQPTERDEYKQPFKPESSKALDWRDYFKVINASQQQRFSYNPHKMQFIFVPNKKQNGLGGIAGFLPDIEDKVQMFLTRYYLTNDRVMRNENFQNSDMFNPLSSMVSLQNELSNTNRQQQSSSMSITPIKNLLGRDAQNFLLLGLLNKNFKGNWSLEDPSGSVEIDISQTIPTQGHYYVPGCMVLVEGIYYSVGNKFHVTSMTLPPGERREITLETIGNLDLLGIHGISNNNFIARLDKDLKIRLHLLEKELTDHKFVILGANLFLDDLKIMTALSKILQKLNDDPPTLLIWQGSFTSVPVFASMSSRNISSSTQFKNNFDALATLLSRFDNLTENTTMIFIPGPNDLWGSMVSLGASGTLPQDPIPSAFTKKINKVCKNVVWSSNPTRIAYLSQEIVIFRDDLSGRFKRHRLEFPFNESEDVYTENDNMMSKDTDIVPIDELVKEPDQLPQKVQETRKLVKTILDQGHLSPFLDSLRPISWDLDHTLTLCPIPSTMVLCDTTSAQFDLTYNGCKVINPGSFIHNRRARYMEYVPSSKKTIQEEIYI
notes: DNA polymerase epsilon subunit B Dpb2, S. cerevisiae; N-terminal helical domain (8-94, disordered), PDE domain (168-209 and 349-689), OB domain (210-348); The holoenzyme was purified on anti-Flag resin; also called Dbp2; B subunit; source: yeast, subunit genes integrated under the Gal1/10 promotor, galactose-induced; purified as holoenzyme (anti-Flag resin, MonoS)
B3: Dpb3 subunit of S. cerevisiae DNA polymerase ε holoenzyme (natural protein)
chain: MSNLVKEKAPVFPISKVKKIAKCDPEYVITSNVAISATAFAAELFVQNLVEESLVLAQLNSKGKTSLRLSLNSIEECVEKRDNFRFLEDAIKQLKKNSALDKKRELNMQPGRSDQEVVIEEPELHEDDGVEEEEEEDEVSEEEEPVHNEELLDDSKDQQNDKSTRSVASLLSRFQYKSALDVGEHSDSSDIEVDHTKSTDP
notes: DNA polymerase epsilon subunit C Dpb3, S. cerevisiae; histone fold domain and C-terminal region; The holoenzyme was purified on anti-Flag resin; source: yeast, subunit genes integrated under the Gal1/10 promotor, galactose-induced; purified as holoenzyme (anti-Flag resin, MonoS)

Columns and labels:
[1] = target: T1, Pol2 subunit of S. cerevisiae DNA polymerase ε holoenzyme (S. cerevisiae, UniProt P21951 1-2222); experiment: cryo-EM structure; recombinant Pol ε holoenzyme at ~1.6 mg/ml on C-flat holey carbon grids; rigid-state particles selected; 3.5 Å map; sample buffer 50 mM Hepes pH 7.5, 50 mM KGlu, 200 mM KAcetate, 1 mM DTT, 4 mM MgCl2; details: both partners purified
T1 construct: DNA polymerase epsilon catalytic subunit Pol2, S. cerevisiae; 2222-residue polypeptide with catalytic NTD, NTD-CTD linker (Thr-1186 to Ser-1308) and non-catalytic CTD; The holoenzyme was purified on anti-Flag resin; source: yeast, subunit genes integrated under the Gal1/10 promotor, galactose-induced; purified as holoenzyme (anti-Flag resin, MonoS)

[2] = target: B3; experiment: as above; details: both partners purified

T1 sequence (P21951 whole entry): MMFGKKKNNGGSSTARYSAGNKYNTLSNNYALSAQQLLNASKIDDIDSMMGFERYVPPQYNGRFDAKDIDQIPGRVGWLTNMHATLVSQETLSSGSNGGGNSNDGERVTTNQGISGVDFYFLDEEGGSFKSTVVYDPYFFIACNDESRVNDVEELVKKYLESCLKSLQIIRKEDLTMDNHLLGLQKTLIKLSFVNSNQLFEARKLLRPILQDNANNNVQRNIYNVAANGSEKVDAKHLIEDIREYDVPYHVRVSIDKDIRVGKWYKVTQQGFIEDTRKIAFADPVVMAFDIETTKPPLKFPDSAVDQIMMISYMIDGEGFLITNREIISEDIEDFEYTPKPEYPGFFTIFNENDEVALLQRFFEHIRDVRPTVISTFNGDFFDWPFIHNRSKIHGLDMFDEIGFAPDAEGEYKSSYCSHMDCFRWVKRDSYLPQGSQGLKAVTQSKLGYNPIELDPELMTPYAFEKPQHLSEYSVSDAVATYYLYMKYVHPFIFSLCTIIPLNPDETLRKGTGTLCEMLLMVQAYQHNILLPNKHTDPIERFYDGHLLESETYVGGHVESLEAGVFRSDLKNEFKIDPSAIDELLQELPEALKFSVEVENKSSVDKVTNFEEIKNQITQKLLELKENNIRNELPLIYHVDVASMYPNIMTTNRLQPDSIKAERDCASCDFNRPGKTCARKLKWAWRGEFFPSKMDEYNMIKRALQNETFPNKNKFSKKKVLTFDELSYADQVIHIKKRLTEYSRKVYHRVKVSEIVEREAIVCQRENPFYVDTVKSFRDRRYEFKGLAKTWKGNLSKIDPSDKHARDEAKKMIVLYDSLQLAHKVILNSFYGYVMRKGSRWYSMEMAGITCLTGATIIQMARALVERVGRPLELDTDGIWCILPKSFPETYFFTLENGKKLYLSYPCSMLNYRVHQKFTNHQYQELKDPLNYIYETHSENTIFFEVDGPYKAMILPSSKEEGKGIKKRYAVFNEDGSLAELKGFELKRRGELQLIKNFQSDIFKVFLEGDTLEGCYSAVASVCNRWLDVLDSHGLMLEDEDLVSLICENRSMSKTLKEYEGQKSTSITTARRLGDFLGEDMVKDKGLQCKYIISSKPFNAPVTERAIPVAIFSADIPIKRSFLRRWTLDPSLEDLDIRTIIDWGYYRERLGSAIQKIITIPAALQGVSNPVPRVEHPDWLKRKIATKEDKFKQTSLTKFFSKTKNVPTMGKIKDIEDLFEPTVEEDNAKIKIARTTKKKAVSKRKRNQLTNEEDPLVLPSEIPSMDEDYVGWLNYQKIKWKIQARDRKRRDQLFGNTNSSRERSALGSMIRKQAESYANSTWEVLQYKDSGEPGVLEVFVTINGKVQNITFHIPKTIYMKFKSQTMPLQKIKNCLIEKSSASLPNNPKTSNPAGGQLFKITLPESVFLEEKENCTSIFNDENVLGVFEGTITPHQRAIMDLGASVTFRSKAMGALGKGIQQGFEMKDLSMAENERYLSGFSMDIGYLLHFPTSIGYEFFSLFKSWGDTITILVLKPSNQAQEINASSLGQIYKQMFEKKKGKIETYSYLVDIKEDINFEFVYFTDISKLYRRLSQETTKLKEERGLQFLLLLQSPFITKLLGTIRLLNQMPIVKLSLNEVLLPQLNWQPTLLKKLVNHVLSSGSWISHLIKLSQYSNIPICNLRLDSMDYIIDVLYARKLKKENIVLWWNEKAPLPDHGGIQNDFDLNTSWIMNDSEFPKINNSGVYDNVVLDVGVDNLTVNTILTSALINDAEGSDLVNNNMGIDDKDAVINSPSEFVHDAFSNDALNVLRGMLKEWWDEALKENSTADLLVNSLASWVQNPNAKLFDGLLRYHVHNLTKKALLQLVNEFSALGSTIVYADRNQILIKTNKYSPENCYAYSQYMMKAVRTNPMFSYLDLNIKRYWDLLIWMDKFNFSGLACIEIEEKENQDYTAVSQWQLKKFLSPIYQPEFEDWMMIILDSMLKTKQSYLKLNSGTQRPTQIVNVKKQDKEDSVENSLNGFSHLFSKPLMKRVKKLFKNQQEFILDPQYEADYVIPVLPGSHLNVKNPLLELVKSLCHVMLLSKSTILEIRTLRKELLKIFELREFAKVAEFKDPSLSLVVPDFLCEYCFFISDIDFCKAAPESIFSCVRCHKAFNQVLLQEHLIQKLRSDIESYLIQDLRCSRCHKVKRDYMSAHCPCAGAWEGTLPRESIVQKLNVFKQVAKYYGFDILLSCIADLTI

Row | Binder | binding result [1] | binding result [2]
1 | B1 | binds | binds
2 | B2 | binds | 
3 | B3 | binds | 
